From patent US20160251438A1 (LUDWIG INSTITUTE FOR CANCER RESEARCH, published 2016)

Experiments:
Assay in all cases: flow cytometry titration on transfected 293T cells; grade of Reduced avidity read by footnote 3
[1] = biological target: GARP / TGF-β1 S337A complex (human, UniProt Q14392 20-662; P01137 30-390)
Procedure: (§1) Intensities of staining at each concentration of antibody relative to the maximal intensity measured at 5 μg/ml were determined as follows:
(§2) The relative staining intensities were plotted according to the concentration of antibody used for staining, and a non-linear regression analysis was used with the Prism software to determine an EC₅₀ value for binding of the antibody to the WT and to each of the various mutant GARP/TGF-β1 complexes. If the ratio between the EC₅₀ measured on the mutant and the EC₅₀ measured on the WT was >2, the mutation was considered to induce a reduced avidity for binding by the antibody. The ratio of EC₅₀ (mutant vs WT) for MHG-8 and LHG-10 are indicated below each mutation on FIG. 19, parts A and B, respectively.

[2] = biological target: GARP G139N / TGF-β1 complex (human, UniProt Q14392 20-662; P01137 30-390)
Procedure: as §1, §2

[3] = biological target: GARP R163E / TGF-β1 complex (human, UniProt Q14392 20-662; P01137 30-390)
Procedure: as §1, §2

[4] = biological target: GARP / TGF-β1 H270Y complex (human, UniProt Q14392 20-662; P01137 30-390)
Procedure: as §1, §2

[5] = biological target: GARP / TGF-β1 R58A complex (human, UniProt Q14392 20-662; P01137 30-390)
Procedure: as §1, §2

[6] = biological target: GARP / TGF-β1 K338E complex (human, UniProt Q14392 20-662; P01137 30-390)
Procedure: as §1, §2

[7] = biological target: GARP R170A / TGF-β1 complex (human, UniProt Q14392 20-662; P01137 30-390)
Procedure: as §1, §2

[8] = biological target: GARP S138G / TGF-β1 complex (human, UniProt Q14392 20-662; P01137 30-390)
Procedure: as §1, §2

[9] = biological target: GARP R166M/H167E / TGF-β1 complex (human, UniProt Q14392 20-662; P01137 30-390)
Procedure: as §1, §2

[10] = biological target: GARP R143Y / TGF-β1 complex (human, UniProt Q14392 20-662; P01137 30-390)
Procedure: as §1, §2

[11] = biological target: GARP / TGF-β1 Y284A complex (human, UniProt Q14392 20-662; P01137 30-390)
Procedure: as §1, §2

[12] = biological target: GARP / TGF-β1 Q272Y complex (human, UniProt Q14392 20-662; P01137 30-390)
Procedure: as §1, §2

[13] = biological target: GARP M111T/A112G/T113M / TGF-β1 complex (human, UniProt Q14392 20-662; P01137 30-390)
Procedure: as §1, §2

[14] = biological target: GARP T162D / TGF-β1 complex (human, UniProt Q14392 20-662; P01137 30-390)
Procedure: as §1, §2

[15] = biological target: GARP G118L/G119L / TGF-β1 complex (human, UniProt Q14392 20-662; P01137 30-390)
Procedure: as §1, §2

[16] = biological target: GARP L140K/E142L / TGF-β1 complex (human, UniProt Q14392 20-662; P01137 30-390)
Procedure: as §1, §2

[17] = biological target: GARP Y137H/S138G/G139N / TGF-β1 complex (human, UniProt Q14392 20-662; P01137 30-390)
Procedure: as §1, §2

[18] = biological target: GARP / TGF-β1 Y336A complex (human, UniProt Q14392 20-662; P01137 30-390)
Procedure: as §1, §2

[19] = biological target: GARP E189A / TGF-β1 complex (human, UniProt Q14392 20-662; P01137 30-390)
Procedure: as §1, §2

[20] = biological target: GARP / TGF-β1 Q269Y complex (human, UniProt Q14392 20-662; P01137 30-390)
Procedure: as §1, §2

[21] = biological target: GARP Y137H / TGF-β1 complex (human, UniProt Q14392 20-662; P01137 30-390)
Procedure: as §1, §2

[22] = biological target: GARP T165A / TGF-β1 complex (human, UniProt Q14392 20-662; P01137 30-390)
Procedure: as §1, §2

Sequence of GARP L140K/E142L / TGF-β1 complex (Q14392 20-662 L140K/E142L limits assumed, chain 1 of 2): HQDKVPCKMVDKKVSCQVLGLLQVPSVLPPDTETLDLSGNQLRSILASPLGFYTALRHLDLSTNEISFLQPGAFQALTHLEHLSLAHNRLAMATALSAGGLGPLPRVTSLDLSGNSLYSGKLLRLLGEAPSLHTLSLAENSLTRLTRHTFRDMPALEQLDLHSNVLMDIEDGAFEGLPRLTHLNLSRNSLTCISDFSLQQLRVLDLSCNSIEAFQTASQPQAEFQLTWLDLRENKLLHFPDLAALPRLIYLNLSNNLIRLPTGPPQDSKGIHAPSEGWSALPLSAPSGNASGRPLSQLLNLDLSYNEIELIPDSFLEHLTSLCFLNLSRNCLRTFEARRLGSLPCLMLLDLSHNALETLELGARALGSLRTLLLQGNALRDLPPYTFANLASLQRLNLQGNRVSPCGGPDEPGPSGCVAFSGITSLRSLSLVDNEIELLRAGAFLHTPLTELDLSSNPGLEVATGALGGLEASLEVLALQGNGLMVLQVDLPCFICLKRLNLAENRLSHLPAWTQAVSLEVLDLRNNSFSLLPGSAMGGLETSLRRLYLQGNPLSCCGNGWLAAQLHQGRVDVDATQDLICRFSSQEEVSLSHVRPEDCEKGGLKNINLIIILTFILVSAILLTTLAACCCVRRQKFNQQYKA
Sequence of GARP L140K/E142L / TGF-β1 complex (P01137 30-390 limits assumed, stated change not applied, chain 2 of 2): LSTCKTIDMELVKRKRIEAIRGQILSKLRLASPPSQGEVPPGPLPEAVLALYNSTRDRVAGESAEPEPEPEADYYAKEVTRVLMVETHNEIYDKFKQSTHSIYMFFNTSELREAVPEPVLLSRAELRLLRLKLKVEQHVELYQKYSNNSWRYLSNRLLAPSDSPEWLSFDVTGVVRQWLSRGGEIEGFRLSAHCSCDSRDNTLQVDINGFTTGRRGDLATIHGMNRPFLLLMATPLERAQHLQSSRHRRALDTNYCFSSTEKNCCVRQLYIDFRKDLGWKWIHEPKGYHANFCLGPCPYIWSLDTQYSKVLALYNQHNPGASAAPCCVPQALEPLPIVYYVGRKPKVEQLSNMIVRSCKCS
Sequence of GARP R170A / TGF-β1 complex (Q14392 20-662 R170A limits assumed, chain 1 of 2): as the sequence (Q14392 20-662 L140K/E142L limits assumed, chain 1 of 2) above, with K121L, L123E, R151A counted along it
Sequence of GARP R170A / TGF-β1 complex (P01137 30-390 limits assumed, chain 2 of 2): as the sequence (P01137 30-390 limits assumed, stated change not applied, chain 2 of 2) above
Sequence of GARP E189A / TGF-β1 complex (Q14392 20-662 E189A limits assumed, chain 1 of 2): as the sequence (Q14392 20-662 L140K/E142L limits assumed, chain 1 of 2) above, with K121L, L123E, E170A counted along it
Sequence of GARP E189A / TGF-β1 complex (P01137 30-390 limits assumed, chain 2 of 2): as the sequence (P01137 30-390 limits assumed, stated change not applied, chain 2 of 2) above
Sequence of GARP Y137H / TGF-β1 complex (Q14392 20-662 Y137H limits assumed, chain 1 of 2): as the sequence (Q14392 20-662 L140K/E142L limits assumed, chain 1 of 2) above, with Y118H, K121L, L123E counted along it
Sequence of GARP Y137H / TGF-β1 complex (P01137 30-390 limits assumed, chain 2 of 2): as the sequence (P01137 30-390 limits assumed, stated change not applied, chain 2 of 2) above

B1: LHG-10 (antibody, human IgG1, V domains shown)
VH: EVQLVQPGAELRNSGASVKVSCKASGYRFTSYYIDWVRQAPGQGLEWMGRIDPEDGGTKYAQKFQGRVTFTADTSTSTAYVELSSLRSEDTAVYYCARNEWETVVVGDLMYEYEYWGQGTQVTVSS
VL: DIQMTQSPTSLSASLGDRVTITCQASQSISSYLAWYQQKPGQAPKLLIYGASRLQTGVPSRFSGSGSGTSFTLTISGLEAEDAGTYYCQQYDSLPVTFGQGTKVELK
notes: llama-derived V regions in a full human IgG1
B1 was tested, and the “ratio of EC50 (mutant vs WT)” value [1] was ≤ 2 ratio, the “ratio of EC50 (mutant vs WT)” value [2] was ≤ 2 ratio and the “ratio of EC50 (mutant vs WT)” value [3] was > 2 ratio. For the same binder, the “ratio of EC50 (mutant vs WT)” value [4] was ≤ 2 ratio, the “ratio of EC50 (mutant vs WT)” value [5] was ≤ 2 ratio and the “ratio of EC50 (mutant vs WT)” value [6] was ≤ 2 ratio. The “ratio of EC50 (mutant vs WT)” value [7] was ≤ 2 ratio, the “ratio of EC50 (mutant vs WT)” value [8] was ≤ 2 ratio and the “ratio of EC50 (mutant vs WT)” value [9] was ≤ 2 ratio. The “ratio of EC50 (mutant vs WT)” value [10] was ≤ 2 ratio, the “ratio of EC50 (mutant vs WT)” value [11] was ≤ 2 ratio and the “ratio of EC50 (mutant vs WT)” value [12] was ≤ 2 ratio. For the same binder, the “ratio of EC50 (mutant vs WT)” value [13] was ≤ 2 ratio, the “ratio of EC50 (mutant vs WT)” value [14] was > 2 ratio and the “ratio of EC50 (mutant vs WT)” value [15] was ≤ 2 ratio. The “ratio of EC50 (mutant vs WT)” value [16] was ≤ 2 ratio, the “ratio of EC50 (mutant vs WT)” value [17] was > 2 ratio and the “ratio of EC50 (mutant vs WT)” value [18] was ≤ 2 ratio. The “ratio of EC50 (mutant vs WT)” value [19] was ≤ 2 ratio, the “ratio of EC50 (mutant vs WT)” value [20] was ≤ 2 ratio and the “ratio of EC50 (mutant vs WT)” value [21] was ≤ 2 ratio. For the same binder, the “ratio of EC50 (mutant vs WT)” value [22] was ≤ 2 ratio.
